Source: article PMC11240982 (2024)

B1: JT18 (antibody, V domains shown)
VH: EVQLVQSGAEVKRPGESLRISCKTSGYDFTDYWINWVRQMPGKGLEWVGMVYPSDSETAYSPSFRGRVTISADTSISTSYLQWTSLEASDTATYYCARPVSGTFALDVWGRGVLVAVSS
VL: QSVLTQPPSMSGAPGQRVTMSCTGGNSNIGANLYVQWYQQVPGTAPRLLIYEDNQRPSGVSDRFSGSRSGSSASLTITGLQSEDEADYYCQSYDNSLSTVLFGGGTRLTVL
B2: SHIV_(1157ipd3N4) V3 peptide (305KSISIGPGQAI317) (peptide)
peptide: KSISIGPGQAI

Tests used:
Test in all cases: BLI
[1] = biological target: B2
447-52D = biological target: 447-52D
J038 = biological target: J038

Binder | Kd [1] | Kd (447-52D) | Kd (J038)
B1 | 55.3 nM |  | 
B2 |  | 55.6 nM | 1650 nM
